The values that follow come from publication PMC8262869, “The DnaK/DnaJ Chaperone System Enables RNA Polymerase-DksA Complex Formation in Salmonella Experiencing Oxidative Stress” (mBio, 2021).

B1: DnaJ-6×His (natural protein, Salmonella enterica serovar Typhimurium, UniProt P0A1G7 1-379, looked up)
chain: MAKRDYYEILGVSKTAEEREIKKAYKRLAMKYHPDRNQGDKEAEAKFKEIKEAYEVLTDAQKRAAYDQYGHAAFEQGGMGGGFGGGFNGGADFSDIFGDVFGDIFGGGRGRQRAARGADLRYNMDLTLEEAVRGVTKEIRIPTLEECDVCHGSGAKAGTQPQTCPTCHGSGQVQMRQGFFAVQQTCPHCQGRGTLIKDPCHKCHGHGRVEKSKTLSVKIPAGVDTGDRIRLAGEGEAGEHGAPAGDLYVQVQVKQHPIFEREGNNLYCEVPINFAMAALGGEIEVPTLDGRVMLKVPSETQTGKLFRMRGKGVKSVRGGAQGDLLCRVVVETPVGLSEKQKQLLKDLQESFGGPTGEKNSPRSKSFFDGVKKFFDDLTR
notes: DnaJ, Salmonella enterica serovar Typhimurium; full-length dnaJ in NdeI and XhoI sites of pET-22b(+); also called wild-type DnaJ protein; C-terminally 6×His-tagged DnaJ; not shown: 6×His, C-terminal, kept
B2: GST-DnaK (natural protein)
chain: not shown
notes: DnaK (Hsp70), Salmonella enterica serovar Typhimurium; dnaK cloned into BamHI and XhoI sites of pGEX-6P-1; source: E. coli BL21(DE3), purified (glutathione-Sepharose 4B)
B3: oxidized GST-DksA (natural protein)
chain: MQEGQNRKTSSLSILAIAGVEPYQEKPGEEYMNEAQLSHFKRILEAWRNQLRDEVDRTVTHMQDEAANFPDPVDRAAQEEEFSLELRNRDRERKLIKKIEKTLKKVEDEDFGYCESCGVEIGIRRLEARPTADLCIDCKTLAEIREKQMAG
modifications: cysteine residues oxidized (disulfide-bonded) by treatment with H2O2; positions not given
notes: DksA, Salmonella enterica serovar Typhimurium; dksA cloned into BamHI and XhoI sites of pGEX-6P-1; For the in vitro transcription assays the GST tag was removed with PreScission protease and oxidation was with 1 mM H2O2; also called oxidized DksA; source: E. coli BL21(DE3), purified (glutathione-Sepharose 4B); treated with 100 μM H2O2 for 1 h at 37°C

In experiment [1] the target is T1, GST-DnaK T199A (Salmonella enterica serovar Typhimurium, UniProt Q56073 1-638, T199A).
T1 construct: DnaK (Hsp70), Salmonella enterica serovar Typhimurium; point mutant of dnaK in pGEX-6P-1; also called recombinant DnaK T199A variant; source: E. coli BL21(DE3), purified (glutathione-Sepharose 4B)
Kind of experiment: pull-down; GST fusion (bait) on glutathione-Sepharose 4B beads, 50 mM Tris-HCl pH 7.5, 4°C, 2 h with C-terminally 6×His-tagged prey; wash 50 mM NaCl, elution 500 mM NaCl; anti-6×His immunoblot. To be noted: both partners purified.

The target in experiment [2] is B2. The description is as above. To be noted: both partners purified.
Experiment [3] deals with T2, DnaJ H33Q-6×His (Salmonella enterica serovar Typhimurium, UniProt P0A1G7 1-379, H33Q).
T2 construct: DnaJ, Salmonella enterica serovar Typhimurium; point mutant of full-length dnaJ in pET-22b(+); also called DnaJ H33Q recombinant variant; not shown: 6×His, C-terminal, kept
The experiment is described as above. To be noted: both partners purified.

Experiment [4] deals with E. coli holoenzyme RNA polymerase (E. coli, UniProt P0A7Z4 1-329; P0A8V2 1-1342). Briefly: cell-based or functional assay.
In experiment [5] the target is T3, DnaJ ΔZn1-6×His (Salmonella enterica serovar Typhimurium, UniProt P0A1G7 1-379, C147S | C150S | C200S | C203S).
T3 construct: DnaJ, Salmonella enterica serovar Typhimurium; also called C147S C150S C200S C203S; not shown: 6×His, C-terminal, kept
Briefly: pull-down; GST fusion (bait) on glutathione-Sepharose 4B beads, 50 mM Tris-HCl pH 7.5, 4°C, 2 h with C-terminally 6×His-tagged prey; wash 50 mM NaCl, elution 500 mM NaCl; anti-6×His immunoblot. To be noted: both partners purified.

For experiment [6], the target named is T4, DnaJ C186H-6×His (Salmonella enterica serovar Typhimurium, UniProt P0A1G7 1-379, C186H).
T4 construct: DnaJ, Salmonella enterica serovar Typhimurium; point mutant of full-length dnaJ in pET-22b(+); not shown: 6×His, C-terminal, kept
The experiment is described as above. To be noted: both partners purified.

Experiment [7] concerns the target T5, DnaJ C268A-6×His (Salmonella enterica serovar Typhimurium, UniProt P0A1G7 1-379, C268A).
T5 construct: DnaJ, Salmonella enterica serovar Typhimurium; point mutant of full-length dnaJ in pET-22b(+); not shown: 6×His, C-terminal, kept
Described as above. To be noted: both partners purified.

Bounds are passed on as bounds.

As for B1, the binding result in experiment [1] and in experiment [2] was “binds” throughout.
As for B2, in experiment [3], the binding result is recorded as “binds”.
Regarding B3, the “livJ in vitro transcription (qRT-PCR): 5 μM oxidized DksA (GST tag removed), 5 nM RNA polymerase, 50 nM DnaJ, upon addition of 500 nM untagged DnaK” value in experiment [4] is over 10 fold. The binding result in experiment [3], in experiment [5], in experiment [6] and in experiment [7] was “binds” each time.
